Results published in the supplement of paper PMC10567573.

B1: ZNF449 (parent)
chain: QLTGHQRIHSGEEPHKCPECGKRF

Variants of: B1
Experiment: protein stability index of a GFP-peptide fusion (GPS, HEK-293T) (PSI 1-6); higher = more stable
Settings: c terminus: a fixed tail appended
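Note: lentivirally expressed fusions sorted by FACS into six bins by GFP to DsRed ratio, PSI derived from sequencing read proportions per bin multiplied by bin number.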

Protein stability index: each site, then its substitutions
E19: R 3.15; Y 3.95; P 4.23; M 4.05; T 4.03; I 3.37; D 3.4; F 3.69; G 3.09; K 3.33; S 3.62; V 4.53; H 4.12; W 3.61
I8: Y 4.53; L 3.47; W 4.27; S 4.51; M 4.67; E 4.5; Q 4.23; T 4.42; R 3.75; A 4.54; P 3.71; K 3.63; F 3.96
H15: V 2.18; S 4.06; N 4.52; F 4.22; L 3.65; I 4.8; C 5.22; K 3.66; T 4.52; Q 4.31; A 4.68; Y 4.3; E 4.28; R 3.76; P 3.94
Q1: I 3.3; W 2.03; G 4.83; M 2.5; A 4.5; N 4.09; P 3.96; H 3.69; D 3.45; L 3.84; S 4.72; V 3.76; C 4.74; T 4.31; E 3.42; Y 2.71
K22: L 4.29; A 4.72; I 3.73; F 4.03; Y 4.3; N 4.16; E 4.62; S 4.71; H 4.3; W 3.6; T 4.21; P 4.22; R 4; V 4.51
G11: Q 4.01; F 3.77; K 4.09; M 3.21; Y 3.87; L 3.87; H 4.23; A 4.64; P 4.25; D 4.5; I 3.52; T 3.96; V 3.64; R 4.14; E 4.75
G21: C 3.77; D 4.36; T 4.47; F 4.19; Y 3.6; V 4.49; E 4.87; P 4.7; L 4.6; H 4.08; S 4.32; W 3.73; K 4.41; Q 4.47; A 4.21
R7: L 4.7; V 3.78; A 4.69; P 4.44; F 3.33; H 4.78; K 4.31; G 4.56; E 4.08; Y 4.14; W 3.36; M 4.43; I 4.58
P14: G 4.5; D 4.84; L 3.7; W 4.5; E 4.09; K 3.98; A 4.33; V 4.19; H 3.88; C 4.22; R 3.75; N 4.49; Y 4.65; I 4.5
C20: Y 4.67; Q 4.79; E 5.41; A 4.35; H 4.46; D 5.03; F 4.39; L 4.05; G 4.49; T 4.87; M 3.82; I 4.36; K 4.99; R 5.4; W 4.34; V 3.71; P 4.61
S10: P 4.47; Q 3.91; H 4.24; I 3.6; D 4.33; M 3.36; A 4.01; R 3.55; F 4.12; N 3.85; T 4.35; L 4.12; K 3.87
H9: N 4.13; S 4.12; T 3.71; R 3.54; C 4.02; P 4.28; G 3.52; L 3.98; K 3.81; A 3.57; M 3.59; W 3.34
F24: I 3.65; T 4.83; Q 4.62; N 4.4; M 4.13; G 4.7; H 4.84; Y 4.58; E 4.88
P18: H 3.61; Y 3.64; C 3.74; Q 4.02; G 4.21; M 4.14; V 4.55; K 4.15; T 3.98; S 4.46; F 3.41; W 3.4; I 3.88; R 4.4; E 4.17; D 5.02
K16: P 4.23; E 4.69; W 4.14; Q 4.3; G 3.97; M 3.94; C 3.84; I 4.48; N 4.54; F 3.48; H 5; A 4.36; Y 3.61; D 4.82
H5: S 3.41; F 2.94; I 4.18; T 4.08; Q 3.65; P 4.48; E 4.56; L 3.45; R 4.03; K 4.46; Y 2.92; N 3.73; V 3.56; D 4.38; G 4.45; M 3.67; A 3.17
E12: F 2.54; S 3.96; V 4.17; W 3.99; C 3.35; N 4.21; G 3.99; I 3.63; P 3.48; R 4.01; D 4.15; H 4.05; M 3.73; K 3.43; Y 3.41
G4: R 3.69; P 4.14; C 4.29; T 4.43; W 2.78; I 3.41; L 3.83; D 4.09; Y 3.95; K 3.48; V 3.52; F 3.5; S 4.57; E 4.38; N 3.42
Q6: K 3.43; P 4.04; R 2.88; M 3.68; G 3.44; W 3.05; E 3.77; H 4.16; N 3.77; T 3.84; D 4.77; A 4.67; I 3; L 3.83; S 4.24
L2: N 4.59; Q 5.16; V 4.65; G 4.77; I 3.1; D 5.01; H 4.58; C 5.34; T 4.64; E 4.71; S 4.6; M 4.86; K 4.8; P 4.89
E13: M 3.57; V 3.33; H 3.62; T 3.39; R 3.54; C 4.11; G 4.09; A 4.21; Y 3.15; W 3.57; F 3.09; P 4.1; N 3.42; D 4.46
R23: Q 3.44; K 5.28; L 4.74; S 4.83; T 4.52; C 3.93; F 3.98; N 3.95; M 4.06; D 4.99; E 5.37
C17: E 4.89; H 4.17; Q 4.38; D 5.48; R 4.36; M 4.72; P 4.71; V 4.76
T3: G 3.69; I 2.64; V 3.12; N 2.66; M 4.15; K 3.99; C 4.82; L 3.6; E 4.59; F 4.01; R 3.48; W 2.77; Q 3.66; H 4.45; D 4.99
